Measured values published in US20090111753A1, “Nogo-A Polypeptide Fragments, Variant Nogo Receptor-1 Polypeptides, and Uses Thereof” (Yale University, priority 2004, published 2009).

B1: B4C: fusion protein of GST and B4C fragment (carboxyl terminal 75 aa) of Amino-Nogo (protein)
chain: LLPPDVSALATQAEIESIVKPKVLVKEAEKKLPSDTEKEDRSPSAIFSAELSKTSVVDLLYWRDIKKTG
modifications: left off: large carriers
notes: fusion protein of GST and B4C fragment (carboxyl terminal 75 aa) of Amino-Nogo
B2: a.a. 950-1018 (AmNg B4C): AP fusion protein of Amino-Nogo fragment B4C, aa 950-1018 (protein)
chain: B1 chain
modifications: left off: large carriers

Tests used:
COS-7 cells = assay: Fibroblast spreading assay on dried GST fusion protein; assay type: cell-based; conditions: GST fusion protein presented as dried substrate
Protocol: FIG. 2A. Effects of Amino-Nogo fragments on fibroblast spreading and neurite outgrowth. Different effects of Amino-Nogo fragments on fibroblast spreading. COS-7 cells were allowed to attach and spread on slides with spots coated with 50 ng of dried GST fusion protein as indicated and stained for F-actin. GST-A: fusion protein of GST and A fragment (FIG. 1) of Amino-Nogo. GST-A, GST-B, GST-Δ20, GST-B4 and GST-B4C: fusion protein of GST and A, B, Δ20, B4 or B4C fragment (FIG. 1) of Amino-Nogo, respectively.
FIG. 2B. COS-7 cell area for experiments as in (A) was measured and plotted.
FIG. 2C. COS-7 cells were allowed to attach and spread on 96 well dishes coated with dried GST fusion proteins as indicated. Number of attached cells were counted and plotted as a function of the amount of various proteins dried per well in a 96 well dish.
It has been recognized that the Amino-Nogo-A protein inhibits non-neuronal cell spreading and axonal outgrowth when the protein is substrate bound (Chen, M. S., et al., Nature 403:434-439 (2000); Fournier, A. E., et al., Nature 409:341-346 (2001)). […] The later domain has been termed Δ20. To determine whether the NgR-interacting aa of Amino-Nogo-A described in Example 1 regulate cell spreading and axonal outgrowth, various fragments were expressed as GST fusion proteins and purified from E. coli. To generate GST fusion proteins, amino Nogo fragments were cloned in pGEX2T (Amersham Pharmacia). Native and soluble GST fusion proteins were expressed and purified as described (GrandPre, T., et al., Nature 403:439-444 (2000)). COS-7 binding assays were done as described (Fournier, A. E., et al., Nature 409:341-346 (2001)). Bound AP to COS-7 cells was measured using NIH image software. Fibroblast spreading and cDRG outgrowth assay were done as described (Fournier, A. E., et al., Nature 409:341-346 (2001)) with some modifications. Briefly, 50 μl of purified GST fusion protein or peptides diluted in PBS was pipetted into polylysine precoated 96 well plates (Becton Dickson Biocoat plates) and dried overnight at room temperature. […]

E13 chick DRG neurons = assay: cDRG neurite outgrowth assay; assay type: cell-based; conditions: substrate coated with GST fusion protein
Protocol: FIG. 2D. Differential effects of Amino-Nogo fragments on neurite outgrowth. Dissociated neurons from E13 chick DRGs were plated on 96 well dishes coated with lpmol protein per well and stained for neurofilament localization.
FIG. 2E. Neurite length per neuron were measured and plotted as percentage of PBS control with increasing concentration of dried protein for experiment described in […].
FIG. 6C. B24/32 peptide inhibits neurite outgrowth. Dissociated neurons from E13 chick DRG were plated onto 96 well dishes coated with 500 pmol of dried peptides as indicated and stained for neurofilament localization.
FIG. 6D. Neurite length per neuron was measured and plotted as percentage of PBS control for experiments as in (C).
(§1) It has been recognized that the Amino-Nogo-A protein inhibits non-neuronal cell spreading and axonal outgrowth when the protein is substrate bound (Chen, M. S., et al., Nature 403:434-439 (2000); Fournier, A. E., et al., Nature 409:341-346 (2001)). […] The later domain has been termed Δ20. To determine whether the NgR-interacting aa of Amino-Nogo-A described in Example 1 regulate cell spreading and axonal outgrowth, various fragments were expressed as GST fusion proteins and purified from E. coli. To generate GST fusion proteins, amino Nogo fragments were cloned in pGEX2T (Amersham Pharmacia). Native and soluble GST fusion proteins were expressed and purified as described (GrandPre, T., et al., Nature 403:439-444 (2000)). COS-7 binding assays were done as described (Fournier, A. E., et al., Nature 409:341-346 (2001)). Bound AP to COS-7 cells was measured using NIH image software. Fibroblast spreading and cDRG outgrowth assay were done as described (Fournier, A. E., et al., Nature 409:341-346 (2001)) with some modifications. Briefly, 50 μl of purified GST fusion protein or peptides diluted in PBS was pipetted into polylysine precoated 96 well plates (Becton Dickson Biocoat plates) and dried overnight at room temperature. For fibroblast spreading assay, subconfluent COS-7 cells were then plated for 1 hour in serum containing medium before fixation and staining with rho damine-phalloidin.
The same GST-Amino-Nogo proteins were tested for their ability to reduce neurite outgrowth from chick E13 DRG neurons. For cDRG outgrowth assay, dissociated E13 cDRG neurons were plated for 6 hours before fixation. […] Cell area, number of attached cells and neurite length were measured using the Imageexpress machine and software (Axon Instrument).
We reasoned that fusing the 24 aa segment of Amino-Nogo-A to NEP32 antagonist peptide might create a high affinity antagonist with a potency similar to the binding of AP-B4C-66 to NgR. […] Cell area, number of attached cells and neurite length were measured using the linageexpress machine and software (Axon Instrument).

NgR = target: T1, NgR (Homo sapiens, UniProt Q9BZR6); assay: AP fusion protein binding to NgR expressing COS-7 cells; conditions: AP fused Amino-Nogo fragments in conditioned media on NgR expressing COS-7 cells; 'No binding at' cells continue on the next line: AmNg A 150 nM; a.a. 1000-1018, a.a. 1005-1018, Amino of NgC 25 nM; a.a. 950-1004 50 nM; Amino of NgB 100 nM
T1 construct: expressed in transfected cells; host or cells: COS-7
T1 sequence (Q9BZR6 27-447): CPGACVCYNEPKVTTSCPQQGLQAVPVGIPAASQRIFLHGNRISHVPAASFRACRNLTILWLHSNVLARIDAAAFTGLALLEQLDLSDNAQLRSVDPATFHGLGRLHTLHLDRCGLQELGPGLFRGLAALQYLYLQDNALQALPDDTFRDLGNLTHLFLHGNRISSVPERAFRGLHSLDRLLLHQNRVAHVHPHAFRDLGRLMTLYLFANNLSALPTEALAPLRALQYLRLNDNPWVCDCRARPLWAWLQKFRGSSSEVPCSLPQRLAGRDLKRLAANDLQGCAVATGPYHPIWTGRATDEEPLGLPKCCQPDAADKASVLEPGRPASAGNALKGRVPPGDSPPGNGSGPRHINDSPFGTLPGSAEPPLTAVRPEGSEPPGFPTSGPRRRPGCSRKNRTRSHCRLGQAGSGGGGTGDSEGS
Source text: Several alkaline phosphatase (AP) fusion proteins containing various Nogo-A segments derived from regions between the amino terminus and the first hydrophobic segment were examined to identify the mechanism of Amino-Nogo-A action. To generate additional AP fusion proteins, human amino Nogo fragments were amplified and ligated to the pcAP6 vector digested with restriction enzymes EcoRI and XhoI as described (Fournier, A. E., et al., Nature 409:341-346 (2001)). Plasmids were then transfected into HEK293T cells and conditioned media were collected after 7 days. None of these fragments bind with high affinity to non-transfected COS-7 cells. […] This binding is saturable with a Kd indistinguishable from that for AP-Nogo-66 association with NgR (Table I). To better define the region responsible for Amino-Nogo interaction with NgR, a range of truncation mutants of Amino-Nogo were examined as AP fusion proteins. […] In fact, the NgR-interacting segment of Amino-Nogo is fully accounted for in the extreme carboxyl 24 amino acids (aa 995-1018, Amino-Nogo-A-24) (Table I and FIG. 1D). […] We named this domain (aa 995-1013) as Amino-Nogo-A-19.
Binding Kds for AP fused Amino-Nogo fragments were measured by applying conditioned media containing AP fusion protein to NgR expressing COS-7 cells. Bound AP was stained and measured.
as §1

NgR mutants = assay: AP fusion protein binding to COS-7 cells expressing NgR deletion mutants; conditions: COS-7 cells expressing NgR mutants; FIG. 3A
Source text: FIG. 3A. Binding of Amino-Nogo to NgR requires LRR repeats. Binding of AP or AP fused Nogo fragments to COS-7 cells expressing NgR mutants as indicated. AP-B and AP-B4: AP fusion protein of B or B4 fragment of Amino-Nogo. Surface expression of NgR mutants was detected using anti-Myc antibodies.
Similarly, the cysteine rich LRR-NT and LRR-CT capping domains are essential for Amino-Nogo-B4C binding. […] NgR is part of gene family that includes NgR2 and NgR3. […] By these measures, the NgR requirements for Nogo-66 and Amino-Nogo-B4C binding are indistinguishable.

Molecule	COS-7 cell attachment and spreading (COS-7 cells)	neurite outgrowth from chick E13 DRG neurons (E13 chick DRG neurons)	Kd (NgR) [nM]	binding to NgR with deletion of the CT domain (NgR mutants)	binding to NgR with deletions of any two LRRs (NgR mutants)	requirement of LRR-NT and LRR-CT capping domains of NgR for binding (NgR mutants)
B1	do not alter COS-7 morphology	not inhibitory for axonal growth				
B2			3.51 ± 3.36	did not alter	eliminated binding	essential
